Several values for one entry are separate records, joined by “and”; a condition that tells them apart may be missing. Equal entries are not always repeated. Where two headings read alike, the source gives them in different places.
Columns and labels:
[1] = molecular target: BoNT/A binding domain (rBoNT/A-HC) (Clostridium botulinum)
[2] = molecular target: BoNT/A binding domain (rBoNT/A-HC) (Clostridium botulinum); remark: listed apart in the source

Chain of BoNT/A binding domain (rBoNT/A-HC) (Clostridium botulinum) (P0DPI1 873-1296): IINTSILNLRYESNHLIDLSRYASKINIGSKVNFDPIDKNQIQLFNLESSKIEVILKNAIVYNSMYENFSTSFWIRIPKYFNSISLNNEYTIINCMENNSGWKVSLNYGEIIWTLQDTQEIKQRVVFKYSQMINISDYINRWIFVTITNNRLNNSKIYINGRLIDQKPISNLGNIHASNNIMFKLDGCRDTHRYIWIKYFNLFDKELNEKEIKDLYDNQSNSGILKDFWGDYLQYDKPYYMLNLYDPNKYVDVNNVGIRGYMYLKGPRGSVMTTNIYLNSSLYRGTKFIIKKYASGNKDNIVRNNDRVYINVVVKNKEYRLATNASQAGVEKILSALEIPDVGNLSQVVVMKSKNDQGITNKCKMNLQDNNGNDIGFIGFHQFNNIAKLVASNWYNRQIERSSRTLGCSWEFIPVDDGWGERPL

Substance	RUMax [1]	Percentage increase [1]	Percentage increase [2]	RUMax [2]
FGFR1 (transfected, pReceiver-M02/FGFR1) (receptor)	480 RU and 470 RU and 330 RU			
FGFR2 (transfected, pReceiver-M02/FGFR2) (receptor)	510 RU and 460 RU and 450 RU	46% and 24% and 40%		
FGFR3 (transfected, pReceiver-M02/FGFR3) (receptor)	510 RU and 450 RU	46% and 38% and 40%	73%	225 RU and 110 RU
FGFR3 and SV2C co-transfected			27% and 13%	165 RU and 90 RU
SV2C (transfected, pReceiver-M02/SV2C) (receptor)			8% and 6%	140 RU and 85 RU

— patent publication US20090263836A1
